The target of the series is hAGO2 (human, UniProt Q9UKV8 1-859). Nature of the series: EMSA. (In general: A gel shift assay detects complexes by their altered migration in electrophoresis.)
Sequence of hAGO2 (Q9UKV8 whole entry): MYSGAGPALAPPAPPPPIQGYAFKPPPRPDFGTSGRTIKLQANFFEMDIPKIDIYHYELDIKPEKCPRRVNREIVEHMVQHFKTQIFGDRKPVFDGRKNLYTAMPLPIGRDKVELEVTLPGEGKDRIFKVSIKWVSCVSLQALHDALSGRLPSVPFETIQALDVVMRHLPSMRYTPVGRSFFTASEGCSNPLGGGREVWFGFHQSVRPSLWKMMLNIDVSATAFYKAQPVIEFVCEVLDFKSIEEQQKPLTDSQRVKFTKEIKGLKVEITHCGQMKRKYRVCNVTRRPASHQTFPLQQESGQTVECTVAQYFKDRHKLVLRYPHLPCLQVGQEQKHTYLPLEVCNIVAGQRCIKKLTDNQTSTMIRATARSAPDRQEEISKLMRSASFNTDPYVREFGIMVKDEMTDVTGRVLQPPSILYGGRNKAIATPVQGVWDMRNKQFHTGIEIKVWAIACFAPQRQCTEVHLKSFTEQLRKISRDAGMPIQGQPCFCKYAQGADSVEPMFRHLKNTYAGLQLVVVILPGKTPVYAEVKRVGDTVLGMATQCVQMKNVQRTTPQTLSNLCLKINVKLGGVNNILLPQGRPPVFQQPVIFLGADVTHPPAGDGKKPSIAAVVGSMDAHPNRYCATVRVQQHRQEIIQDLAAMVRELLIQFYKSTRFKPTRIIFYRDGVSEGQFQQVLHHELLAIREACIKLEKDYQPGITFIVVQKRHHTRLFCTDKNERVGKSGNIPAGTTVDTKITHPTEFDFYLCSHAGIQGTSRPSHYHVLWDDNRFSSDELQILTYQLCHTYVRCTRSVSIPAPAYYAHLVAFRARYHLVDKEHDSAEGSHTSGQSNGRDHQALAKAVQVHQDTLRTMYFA

B1: 5'Cy5-HIS-SARS2-1 DNA-RNA hybrid (DNA:RNA)
DNA: AGCCTTTACCTCCATTAGCATAGACA
RNA: UGUCUAUGCUAAUGGAGGUAAAGGCU
Take B1: the binding result is on record as “binds”.

(Values after article PMC8811534.)
